This note sets out measurements from publication PMC8750365.

The target in assay [1] is Endogenous TOP1 of U2OS cells (human (endogenous in U2OS)) (UniProt P11387). Description: proximity ligation.
In assay [2] the target is Endogenous TOP2A of U2OS cells (human (endogenous in U2OS)) (UniProt P11388). Description: proximity ligation.
Chain of UniProt P11388 (P11388 whole entry): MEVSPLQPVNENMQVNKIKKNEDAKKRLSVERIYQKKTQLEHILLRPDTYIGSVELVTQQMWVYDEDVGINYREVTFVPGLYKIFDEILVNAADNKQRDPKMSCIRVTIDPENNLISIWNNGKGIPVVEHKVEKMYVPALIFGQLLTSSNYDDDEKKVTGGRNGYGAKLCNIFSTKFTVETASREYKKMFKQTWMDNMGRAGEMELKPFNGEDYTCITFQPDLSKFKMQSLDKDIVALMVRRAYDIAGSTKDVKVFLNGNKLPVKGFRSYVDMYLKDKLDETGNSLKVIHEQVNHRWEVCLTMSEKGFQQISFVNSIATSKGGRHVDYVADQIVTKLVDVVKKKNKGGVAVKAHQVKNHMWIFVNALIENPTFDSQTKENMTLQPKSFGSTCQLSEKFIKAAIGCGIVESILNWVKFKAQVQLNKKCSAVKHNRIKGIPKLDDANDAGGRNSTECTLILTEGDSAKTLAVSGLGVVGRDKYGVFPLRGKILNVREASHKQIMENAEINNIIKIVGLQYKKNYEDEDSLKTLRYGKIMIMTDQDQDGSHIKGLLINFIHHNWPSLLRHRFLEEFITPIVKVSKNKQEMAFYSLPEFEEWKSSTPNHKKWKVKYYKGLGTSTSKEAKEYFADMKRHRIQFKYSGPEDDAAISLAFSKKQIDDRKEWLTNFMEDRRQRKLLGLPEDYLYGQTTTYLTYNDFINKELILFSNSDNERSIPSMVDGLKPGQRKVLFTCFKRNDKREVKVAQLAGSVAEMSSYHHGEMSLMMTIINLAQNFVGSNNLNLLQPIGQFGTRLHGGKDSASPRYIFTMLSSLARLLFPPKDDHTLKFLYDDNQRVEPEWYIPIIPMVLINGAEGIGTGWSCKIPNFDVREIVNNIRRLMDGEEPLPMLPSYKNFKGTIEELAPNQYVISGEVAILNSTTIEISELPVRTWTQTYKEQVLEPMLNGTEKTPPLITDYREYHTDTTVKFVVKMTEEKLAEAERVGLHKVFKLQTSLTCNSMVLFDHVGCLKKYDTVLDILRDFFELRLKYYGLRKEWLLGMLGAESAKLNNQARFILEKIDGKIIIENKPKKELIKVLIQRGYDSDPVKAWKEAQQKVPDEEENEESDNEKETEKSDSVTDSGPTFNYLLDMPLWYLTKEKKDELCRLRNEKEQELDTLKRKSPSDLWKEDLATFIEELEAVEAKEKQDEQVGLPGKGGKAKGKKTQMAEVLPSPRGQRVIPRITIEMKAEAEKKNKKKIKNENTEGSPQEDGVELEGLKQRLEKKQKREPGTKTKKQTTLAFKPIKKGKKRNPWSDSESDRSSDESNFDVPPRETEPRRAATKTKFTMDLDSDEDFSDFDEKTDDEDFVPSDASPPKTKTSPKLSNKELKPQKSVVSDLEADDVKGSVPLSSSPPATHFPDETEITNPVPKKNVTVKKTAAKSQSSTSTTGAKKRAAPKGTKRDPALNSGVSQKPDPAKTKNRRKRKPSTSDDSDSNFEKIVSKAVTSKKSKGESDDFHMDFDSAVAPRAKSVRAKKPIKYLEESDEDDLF

Chain of UniProt P11387 (P11387 whole entry): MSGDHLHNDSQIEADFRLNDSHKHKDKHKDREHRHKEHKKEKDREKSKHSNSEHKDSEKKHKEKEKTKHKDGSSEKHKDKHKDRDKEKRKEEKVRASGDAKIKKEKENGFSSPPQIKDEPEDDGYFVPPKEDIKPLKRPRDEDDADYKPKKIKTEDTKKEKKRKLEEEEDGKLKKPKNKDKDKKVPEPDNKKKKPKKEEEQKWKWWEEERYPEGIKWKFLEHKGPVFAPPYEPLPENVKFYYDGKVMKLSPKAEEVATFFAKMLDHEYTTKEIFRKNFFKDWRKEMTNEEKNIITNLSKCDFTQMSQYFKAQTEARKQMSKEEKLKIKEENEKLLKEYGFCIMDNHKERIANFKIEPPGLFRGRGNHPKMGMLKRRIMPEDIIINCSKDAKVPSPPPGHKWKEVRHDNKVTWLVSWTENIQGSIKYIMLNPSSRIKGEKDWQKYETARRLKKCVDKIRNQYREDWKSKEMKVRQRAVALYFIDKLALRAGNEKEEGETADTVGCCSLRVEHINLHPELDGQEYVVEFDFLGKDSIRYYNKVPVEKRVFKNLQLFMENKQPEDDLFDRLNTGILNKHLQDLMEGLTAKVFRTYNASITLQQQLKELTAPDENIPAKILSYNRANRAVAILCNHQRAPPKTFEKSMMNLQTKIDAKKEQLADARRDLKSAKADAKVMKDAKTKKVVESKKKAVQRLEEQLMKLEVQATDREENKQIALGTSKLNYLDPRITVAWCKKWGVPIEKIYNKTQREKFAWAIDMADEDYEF

In the case of “MYC-EGFP, doxycycline-inducible, in U2OS-MYC-EGFP cells (from UniProt P01106 1-454) (natural protein)”, the PLA dots/cell (with Dox) in assay [1] and in assay [2] was more than 80 dots/cell each time.
With “Endogenous MYC of U2OS cells (from UniProt P01106 1-454) (natural protein)”, the PLA dots/cell (untreated cells) in assay [1] and in assay [2] was 60 dots/cell throughout.
